For experiment [1], the target named is murine double minute 2 (MDM2) protein fragment. Description: photonic crystal bound-states-in-the-continuum resonance shift (label-free optical biosensor); MDM2 immobilised on the Si3N4 photonic crystal by APTES and BS3 (1.5 uM in 20 mM HEPES pH 7.4, 4 °C overnight), blocked with 5% non-fat dried milk in PBS; p53 1.5 uM in PBS, 20 min at room temperature, washed with PBS; transmission spectrum at θ = 0°.

Experiment [2] has the same target. Briefly: atomic force microscopy; topographic maps of 20 x 20 µm^2 of the MDM2-functionalised photonic crystal surface after incubation with p53 (1.5 uM, 20 min); binding spots 10-20 nm high counted as p53•MDM2 complex. Set-up: unit not given here.

Consider “p53 protein fragment (interacting domain of p53) (domain or fragment)”, for which the shift of the resonance wavelength in experiment [1] worked out at 2.4 nm. This substance came in with a surface density of the complex in experiment [2] of 0.24.

The record behind these values is publication PMC5951372.
